The record followed here is paper PMC13316113, “RNA-induced PRC2 inhibition depends on the sequence of bound RNA”.

The target in series [1] is T1, six-subunit PRC2 (EZH2-EED-SUZ12-RBAP48-AEBP2-JARID2) (UniProt Q15910-2;O75530;Q15022;Q09028;Q6ZN18-2;Q92833 …). In words: UV crosslinking; very low crosslinking efficiency despite saturated binding; EMSA: 50 mM Tris-HCl pH 7.5 (25 C), 100 mM KCl (or LiCl), 2.5 mM MgCl2, 0.1 mM ZnCl2, 2 mM 2-mercaptoethanol, 0.05 mg/ml BSA, 0.05 mg/ml yeast tRNA, 5% glycerol, 30 C 30 min. As to conditions: protein: recombinant; tags: His (EZH2), Strep-GFP (AEBP2, JARID2); TEV treated; AEBP2 retains 7 extra N-terminal aa; copies: 1;1;1;1;1;1; label: 32P; G4. (In general: Mobility shift assays separate free from complexed probe on a gel.)

The target of series [2] is T1, six-subunit PRC2 …. The series can be described thus: EMSA; 100 mM KCl; EMSA: 50 mM Tris-HCl pH 7.5 (25 C), 100 mM KCl (or LiCl), 2.5 mM MgCl2, 0.1 mM ZnCl2, 2 mM 2-mercaptoethanol, 0.05 mg/ml BSA, 0.05 mg/ml yeast tRNA, 5% glycerol, 30 C 30 min. As to conditions: protein: recombinant, tags: His (EZH2), Strep-GFP (AEBP2, JARID2), TEV treated, AEBP2 retains 7 extra N-terminal aa, copies: 1;1;1;1;1;1, label: 32P 5' (EMSA).

Series [3] addresses T1, six-subunit PRC2 …. The description is as above. Conditions: protein: recombinant, tags: His (EZH2), Strep-GFP (AEBP2, JARID2), TEV treated, AEBP2 retains 7 extra N-terminal aa, copies: 1;1;1;1;1;1, label: 32P 5' (EMSA). This is another data set of the same source.
The target of series [4] is six-subunit PRC2 AEBP2del261-389 (UniProt Q15910-2;O75530;Q15022;Q09028;Q6ZN18-2;Q92833 …, internal_change). The series can be described thus: EMSA; P = 0.05 vs WT; EMSA: 50 mM Tris-HCl pH 7.5 (25 C), 100 mM KCl (or LiCl), 2.5 mM MgCl2, 0.1 mM ZnCl2, 2 mM 2-mercaptoethanol, 0.05 mg/ml BSA, 0.05 mg/ml yeast tRNA, 5% glycerol, 30 C 30 min. As to conditions: protein: recombinant; copies: 1;1;1;1;1;1; label: 32P 5' (EMSA); no G4.

B1: 2G4 (structured_RNA)
RNA: AAAAAAAAAAGGGAAGGGAAGGGAAGGGAACAACAACAACAACAAGGGAAGGGAAGGGAAGGGAA
As to B1, the binding result in series [1] is “binds”.

Consider UUUUUUUUUUCUCUUUCUCUCCUUCUCUUCCUCUCUCUCCUCUUUCUCUC (ssRNA) [P10], for which, in series [2] (single strand), the binding signal was ~4 fold weaker than TERRA/Poly(U)/Poly(C).

Usually Kd stands for a measure of binding affinity in units of concentration. For the molecule AAAAAAAAAAGAGAGAGAUUAGGGUUAGGGUUAGGGUUAGGGAGAGAGAG (structured_RNA) [TERRA], the Kd in series [3] (single intramolecular G4 in K+) turned out to be 18 ± 9 nM.

Turning to AAAAAAAAAAGUGUGUGUGUGUGUGUGUGUGUGUGUGUGUGUGUGUGUGU (structured_RNA) [pUG-fold], the binding signal in series [2] (atypical G4 (pUG-fold: three G quartets and one U quartet)) is ~2 fold weaker than TERRA/Poly(U)/Poly(C).

With AAAAAAAAAAGAGAGAGAUGAGUGUGAGUGUGAGUGUGAGUGAGAGAGAG (ssRNA) [TERRAmut], the Kd turned out to be 66 ± 15 nM in series [3] (no G4) and 112 ± 24 nM in series [4].

Regarding UUUUUUUUUUUUUUUUUUUUUUUUUUUUUUUUUUUUUUUUUUUUUUUUUU (ssRNA) [Poly(U)], in series [3] (single strand), the Kd came to 28 ± 4 nM.
